{"source": "paper PMC3486911", "about": "(PLoS Pathogens, 2012)", "experiment_in_all_cases": "SPR", "key": {"[1]": {"molecular_target": "V1 fHbp (V1.p1), wild type (Neisseria meningitidis) (UniProt Q9JXV4)"}, "[2]": {"molecular_target": "V1 fHbp Arg195-Ala (Neisseria meningitidis)"}, "[3]": {"molecular_target": "V1 fHbp Gln193-Ala (Neisseria meningitidis)"}, "[4]": {"molecular_target": "V1 fHbp His203-Ala (Neisseria meningitidis)"}, "[5]": {"molecular_target": "V1 fHbp Ile196-Ala (Neisseria meningitidis)"}, "[6]": {"molecular_target": "V1 fHbp Lys191-Ala (Neisseria meningitidis)"}, "[7]": {"molecular_target": "V1 fHbp Phe194-Ala (Neisseria meningitidis)"}, "[8]": {"molecular_target": "V1 fHbp (V1.p1), wild type (Neisseria meningitidis) (UniProt Q9JXV4)", "remark": "listed apart in the source"}, "[9]": {"molecular_target": "V3 fHbp (V3.p28), wild type (Neisseria meningitidis) (UniProt E6MV22)"}, "[10]": {"molecular_target": "V3 fHbp Ala99Glu (Neisseria meningitidis)"}, "[11]": {"molecular_target": "V3 fHbp Asn123 mutant (to Ala) (Neisseria meningitidis)"}, "[12]": {"molecular_target": "V3 fHbp Asn48 mutant (to Ala) (Neisseria meningitidis)"}, "[13]": {"molecular_target": "V3 fHbp Asp126 mutant (to Ala) (Neisseria meningitidis)"}, "[14]": {"molecular_target": "V3 fHbp Asp43 mutant (to Ala) (Neisseria meningitidis)"}, "[15]": {"molecular_target": "V3 fHbp Asp92 mutant (to Ala) (Neisseria meningitidis)"}, "[16]": {"molecular_target": "V3 fHbp Gln134 mutant (to Ala) (Neisseria meningitidis) (UniProt E6MV22)"}, "[17]": {"molecular_target": "V3 fHbp Gln87 mutant (to Ala) (Neisseria meningitidis) (UniProt E6MV22)"}, "[18]": {"molecular_target": "V3 fHbp Gly49 mutant (to Ala) (Neisseria meningitidis) (UniProt E6MV22)"}, "[19]": {"molecular_target": "V3 fHbp His190 mutant (to Ala) (Neisseria meningitidis)"}, "[20]": {"molecular_target": "V3 fHbp Ile122 mutant (to Ala) (Neisseria meningitidis)"}, "[21]": {"molecular_target": "V3 fHbp Ile89 mutant (to Ala) (Neisseria meningitidis) (UniProt E6MV22)"}, "[22]": {"molecular_target": "V3 fHbp Ile96 mutant (to Ala) (Neisseria meningitidis)"}, "[23]": {"molecular_target": "V3 fHbp Leu117 mutant (to Ala) (Neisseria meningitidis)"}, "[24]": {"molecular_target": "V3 fHbp Leu98 mutant (to Ala) (Neisseria meningitidis)"}, "[25]": {"molecular_target": "V3 fHbp Lys127 mutant (to Ala) (Neisseria meningitidis)"}, "[26]": {"molecular_target": "V3 fHbp Lys32 mutant (to Ala) (Neisseria meningitidis)"}, "[27]": {"molecular_target": "V3 fHbp Pro125 mutant (to Ala) (Neisseria meningitidis)"}, "[28]": {"molecular_target": "V3 fHbp Pro46 mutant (to Ala) (Neisseria meningitidis)"}, "[29]": {"molecular_target": "V3 fHbp Ser44 mutant (to Ala) (Neisseria meningitidis)"}, "[30]": {"molecular_target": "V3 fHbp Thr128 mutant (to Ala) (Neisseria meningitidis)"}, "[31]": {"molecular_target": "V3 fHbp Val114 mutant (to Ala) (Neisseria meningitidis)"}, "[32]": {"molecular_target": "V3 fHbp Val91 mutant (to Ala) (Neisseria meningitidis)"}, "[33]": {"molecular_target": "V1 fHbp (V1.p1), wild type (Neisseria meningitidis) (UniProt Q9JXV4)", "remark": "listed apart in the source"}, "[34]": {"molecular_target": "V3 fHbp (V3.p28), wild type (Neisseria meningitidis) (UniProt E6MV22)", "remark": "listed apart in the source"}, "[35]": {"molecular_target": "V3 fHbp Ala99Glu (Neisseria meningitidis)", "remark": "listed apart in the source"}, "[36]": {"molecular_target": "V3 fHbp Asn123 mutant (to Ala) (Neisseria meningitidis)", "remark": "listed apart in the source"}, "[37]": {"molecular_target": "V3 fHbp Asn48 mutant (to Ala) (Neisseria meningitidis)", "remark": "listed apart in the source"}, "[38]": {"molecular_target": "V3 fHbp Asp126 mutant (to Ala) (Neisseria meningitidis)", "remark": "listed apart in the source"}, "[39]": {"molecular_target": "V3 fHbp Asp43 mutant (to Ala) (Neisseria meningitidis)", "remark": "listed apart in the source"}, "[40]": {"molecular_target": "V3 fHbp Asp92 mutant (to Ala) (Neisseria meningitidis)", "remark": "listed apart in the source"}, "[41]": {"molecular_target": "V3 fHbp Gln134 mutant (to Ala) (Neisseria meningitidis) (UniProt E6MV22)", "remark": "listed apart in the source"}, "[42]": {"molecular_target": "V3 fHbp Gln87 mutant (to Ala) (Neisseria meningitidis) (UniProt E6MV22)", "remark": "listed apart in the source"}, "[43]": {"molecular_target": "V3 fHbp His190 mutant (to Ala) (Neisseria meningitidis)", "remark": "listed apart in the source"}, "[44]": {"molecular_target": "V3 fHbp Ile122 mutant (to Ala) (Neisseria meningitidis)", "remark": "listed apart in the source"}, "[45]": {"molecular_target": "V3 fHbp Ile96 mutant (to Ala) (Neisseria meningitidis)", "remark": "listed apart in the source"}, "[46]": {"molecular_target": "V3 fHbp Leu98 mutant (to Ala) (Neisseria meningitidis)", "remark": "listed apart in the source"}, "[47]": {"molecular_target": "V3 fHbp Lys127 mutant (to Ala) (Neisseria meningitidis)", "remark": "listed apart in the source"}, "[48]": {"molecular_target": "V3 fHbp Pro46 mutant (to Ala) (Neisseria meningitidis)", "remark": "listed apart in the source"}, "[49]": {"molecular_target": "V3 fHbp Ser44 mutant (to Ala) (Neisseria meningitidis)", "remark": "listed apart in the source"}, "[50]": {"molecular_target": "V3 fHbp Thr128 mutant (to Ala) (Neisseria meningitidis)", "remark": "listed apart in the source"}, "[51]": {"molecular_target": "V3 fHbp Val114 mutant (to Ala) (Neisseria meningitidis)", "remark": "listed apart in the source"}, "[52]": {"molecular_target": "V3 fHbp Val91 mutant (to Ala) (Neisseria meningitidis)", "remark": "listed apart in the source"}}, "note": "Values joined by “and” are separate entries in the source; they are usually repeats but may differ in a detail not shown here. Equal values may be shown once. Read-outs that look alike come from different tables or passages of the source."}
{"substance": "human factor H CCP 6 and 7 (fH67) (domain or fragment)", "values": [{"measurement": "Kd", "setting": "[1]", "result": "2.8 nM and 2.35 nM and 2.45 nM"}, {"measurement": "Kd", "setting": "[2]", "result": 218, "unit": "nM"}, {"measurement": "Kd", "setting": "[3]", "result": 4.75, "unit": "nM"}, {"measurement": "Kd", "setting": "[4]", "result": 1.7, "unit": "nM"}, {"measurement": "Kd", "setting": "[5]", "result": 1.5, "unit": "nM"}, {"measurement": "Kd", "setting": "[6]", "result": 4.15, "unit": "nM"}, {"measurement": "Kd", "setting": "[7]", "result": 6.15, "unit": "nM"}, {"measurement": "Kd", "setting": "[8]", "result": "2 nM and 2.1 nM"}, {"measurement": "Kd", "setting": "[9]", "result": "2.4 nM and 2.3 nM"}, {"measurement": "Kd", "setting": "[10]", "result": "79 nM and 70 nM"}, {"measurement": "Kd", "setting": "[11]", "result": "7.4 nM and 8.6 nM"}, {"measurement": "Kd", "setting": "[12]", "result": "3.6 nM and 3.7 nM"}, {"measurement": "Kd", "setting": "[13]", "result": "6.3 nM and 6.5 nM"}, {"measurement": "Kd", "setting": "[14]", "result": "3 nM and 3.4 nM"}, {"measurement": "Kd", "setting": "[15]", "result": "4.7 nM and 4.8 nM"}, {"measurement": "Kd", "setting": "[16]", "result": "2.6 nM and 2.7 nM"}, {"measurement": "Kd", "setting": "[17]", "result": "0.71 nM and 0.72 nM"}, {"measurement": "Kd", "setting": "[18]", "result": 3, "unit": "nM"}, {"measurement": "Kd", "setting": "[19]", "result": "3.4 nM and 3.3 nM"}, {"measurement": "Kd", "setting": "[20]", "result": "9.4 nM and 11 nM"}, {"measurement": "Kd", "setting": "[21]", "result": 38, "unit": "nM"}, {"measurement": "Kd", "setting": "[22]", "result": "14 nM and 15 nM"}, {"measurement": "Kd", "setting": "[23]", "result": 5.2, "unit": "nM"}, {"measurement": "Kd", "setting": "[24]", "result": "86 nM and 88 nM"}, {"measurement": "Kd", "setting": "[25]", "result": "2.9 nM and 3 nM"}, {"measurement": "Kd", "setting": "[26]", "result": 3, "unit": "nM"}, {"measurement": "Kd", "setting": "[27]", "result": "3.2 nM and 3.4 nM"}, {"measurement": "Kd", "setting": "[28]", "result": "0.026 nM and 0.03 nM"}, {"measurement": "Kd", "setting": "[29]", "result": "10 nM and 9.8 nM"}, {"measurement": "Kd", "setting": "[30]", "result": "4 nM and 4.4 nM"}, {"measurement": "Kd", "setting": "[31]", "result": "3.2 nM and 3.3 nM"}, {"measurement": "Kd", "setting": "[32]", "result": "5.6 nM and 6.5 nM"}, {"measurement": "Kd", "setting": "[33]", "result": 2.05, "unit": "nM"}, {"measurement": "Kd", "setting": "[34]", "result": 2.35, "unit": "nM"}, {"measurement": "Kd", "setting": "[35]", "result": 74.5, "unit": "nM"}, {"measurement": "Kd", "setting": "[36]", "result": 8, "unit": "nM"}, {"measurement": "Kd", "setting": "[37]", "result": 3.65, "unit": "nM"}, {"measurement": "Kd", "setting": "[38]", "result": 6.4, "unit": "nM"}, {"measurement": "Kd", "setting": "[39]", "result": 3.2, "unit": "nM"}, {"measurement": "Kd", "setting": "[40]", "result": 4.75, "unit": "nM"}, {"measurement": "Kd", "setting": "[41]", "result": 2.65, "unit": "nM"}, {"measurement": "Kd", "setting": "[42]", "result": 0.715, "unit": "nM"}, {"measurement": "Kd", "setting": "[43]", "result": 3.35, "unit": "nM"}, {"measurement": "Kd", "setting": "[44]", "result": 10.2, "unit": "nM"}, {"measurement": "Kd", "setting": "[45]", "result": 14.5, "unit": "nM"}, {"measurement": "Kd", "setting": "[46]", "result": 87, "unit": "nM"}, {"measurement": "Kd", "setting": "[47]", "result": 2.95, "unit": "nM"}, {"measurement": "Kd", "setting": "[48]", "result": 0.028, "unit": "nM"}, {"measurement": "Kd", "setting": "[49]", "result": 9.9, "unit": "nM"}, {"measurement": "Kd", "setting": "[50]", "result": 4.2, "unit": "nM"}, {"measurement": "Kd", "setting": "[51]", "result": 3.25, "unit": "nM"}, {"measurement": "Kd", "setting": "[52]", "result": 6.05, "unit": "nM"}]}
